According to publication PMC9482650, “Quantitative fragmentomics allow affinity mapping of interactomes” (Nature Communications, 2022):
One block for each binder: values may come before it.

Tests used:
Assay in all cases: holdup assay
Parameters in all cases: key: below the threshold = too weak to quantify, mostly under pKd 3.1 to 4
Conditions in all cases: plain residues with an end cap or a label only (N-terminal biotin on a linker: ado-ado)
[1] = target: Inadl_5, Q8NI35
[2] = target: T1, TX1BP3, O14907
T1 sequence (O14907 10-122, limits assumed, looked up): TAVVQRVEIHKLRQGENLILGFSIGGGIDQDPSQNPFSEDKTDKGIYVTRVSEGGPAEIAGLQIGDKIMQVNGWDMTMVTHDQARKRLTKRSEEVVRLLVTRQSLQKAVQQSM

[3] = target: SCRIB_2, Q14160
[4] = target: DLG2_3, Q15700
[5] = target: GRID2IP_2, A4D2P6
[6] = target: NHERF2_2, Q15599
[7] = target: T2, GRIP1_7, Q9Y3R0
T2 sequence (Q9Y3R0 999-1096, limits assumed, looked up): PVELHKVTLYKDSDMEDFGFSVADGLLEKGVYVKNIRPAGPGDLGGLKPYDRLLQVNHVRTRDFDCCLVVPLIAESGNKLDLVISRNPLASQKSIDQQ

[8] = target: Inadl_1, Q8NI35
[9] = target: T3, PARD3B_1, Q8TEW8
T3 sequence (Q8TEW8 196-299, limits assumed, looked up): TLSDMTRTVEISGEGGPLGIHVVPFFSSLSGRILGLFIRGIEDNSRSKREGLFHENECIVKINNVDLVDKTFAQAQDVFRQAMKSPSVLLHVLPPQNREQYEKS

[10] = target: TJP1_2, Q07157
[11] = target: GIPC2, Q8TF65
[12] = target: GORASP2, Q9H8Y8
[13] = target: FRMPD3, Q5JV73
[14] = target: T4, ARHGAP21, Q5T5U3
T4 sequence (Q5T5U3 45-169, limits assumed, looked up): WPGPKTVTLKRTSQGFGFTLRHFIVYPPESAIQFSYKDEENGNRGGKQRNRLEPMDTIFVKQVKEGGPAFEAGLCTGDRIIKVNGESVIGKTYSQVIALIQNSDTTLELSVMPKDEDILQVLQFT

[15] = target: T5, HTRA3, P83110
T5 sequence (P83110 354-453, limits assumed, looked up): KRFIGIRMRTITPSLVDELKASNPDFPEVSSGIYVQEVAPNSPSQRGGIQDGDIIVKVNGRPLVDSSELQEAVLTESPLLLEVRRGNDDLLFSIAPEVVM

[16] = target: LAP2, Q96RT1
[17] = target: Inadl_3, Q8NI35
[18] = target: T6, LIN7C, Q9NUP9
T6 sequence (Q9NUP9 88-185, limits assumed, looked up): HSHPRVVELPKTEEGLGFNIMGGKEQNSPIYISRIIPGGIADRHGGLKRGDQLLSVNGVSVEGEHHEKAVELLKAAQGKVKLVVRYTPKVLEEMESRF

[19] = target: T7, PDZD2_2, O15018
T7 sequence (O15018 329-429, limits assumed, looked up): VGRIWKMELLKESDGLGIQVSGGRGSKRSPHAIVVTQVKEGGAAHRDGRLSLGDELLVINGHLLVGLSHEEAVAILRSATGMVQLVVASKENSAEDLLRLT

[20] = target: T8, SNTA1, Q13424
T8 sequence (Q13424 82-180, limits assumed, looked up): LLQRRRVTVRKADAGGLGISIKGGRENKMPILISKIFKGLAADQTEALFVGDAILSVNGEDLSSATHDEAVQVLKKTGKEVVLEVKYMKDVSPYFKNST

[21] = target: T9, DFNB31_1, Q9P202
T9 sequence (Q9P202 135-233, limits assumed, looked up): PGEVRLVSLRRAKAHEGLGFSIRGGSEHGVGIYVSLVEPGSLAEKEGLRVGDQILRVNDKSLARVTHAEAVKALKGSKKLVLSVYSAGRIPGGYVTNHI

[22] = target: GOPC, Q9HD26
[23] = target: T10, LNX2_3, Q8N448
T10 sequence (Q8N448 463-564, limits assumed, looked up): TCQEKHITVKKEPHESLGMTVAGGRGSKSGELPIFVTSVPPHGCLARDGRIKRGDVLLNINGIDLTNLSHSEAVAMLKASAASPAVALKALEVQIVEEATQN

[24] = target: FRMPD2_1, Q68DX3
[25] = target: T11, MPDZ_5, O75970
T11 sequence (O75970 695-796, limits assumed, looked up): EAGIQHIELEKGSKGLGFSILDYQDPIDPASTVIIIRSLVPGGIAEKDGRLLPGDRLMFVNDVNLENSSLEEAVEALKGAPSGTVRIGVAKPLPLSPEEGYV

Sequence of SCRIB_2, Q14160 (Q14160 857-960): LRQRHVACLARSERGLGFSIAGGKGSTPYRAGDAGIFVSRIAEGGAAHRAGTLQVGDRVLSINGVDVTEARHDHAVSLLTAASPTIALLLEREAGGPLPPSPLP
Sequence of GRID2IP_2, A4D2P6 (A4D2P6 272-370): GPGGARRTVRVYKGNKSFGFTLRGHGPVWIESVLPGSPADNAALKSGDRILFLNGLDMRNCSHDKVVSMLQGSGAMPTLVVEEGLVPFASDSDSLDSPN
Sequence of LAP2, Q96RT1 (Q96RT1 other isoform, or with tags, fused parts or gaps): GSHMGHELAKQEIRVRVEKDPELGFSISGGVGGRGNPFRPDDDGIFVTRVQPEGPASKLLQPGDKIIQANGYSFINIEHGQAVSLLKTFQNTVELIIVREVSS
Sequence of NHERF2_2, Q15599 (Q15599 142-238): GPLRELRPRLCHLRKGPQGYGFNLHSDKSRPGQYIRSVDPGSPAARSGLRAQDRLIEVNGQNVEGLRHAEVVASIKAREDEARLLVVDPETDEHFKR
Sequence of Inadl_1, Q8NI35 (Q8NI35 113-229): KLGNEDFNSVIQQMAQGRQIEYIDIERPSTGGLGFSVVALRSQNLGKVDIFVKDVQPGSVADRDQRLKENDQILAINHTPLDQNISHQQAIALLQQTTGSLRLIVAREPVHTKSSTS
Sequence of Inadl_5, Q8NI35 (Q8NI35 673-780): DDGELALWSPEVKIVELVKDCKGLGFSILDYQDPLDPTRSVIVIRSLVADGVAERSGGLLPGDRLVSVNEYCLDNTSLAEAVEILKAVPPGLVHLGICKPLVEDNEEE
Sequence of FRMPD3, Q5JV73 (Q5JV73 12-100): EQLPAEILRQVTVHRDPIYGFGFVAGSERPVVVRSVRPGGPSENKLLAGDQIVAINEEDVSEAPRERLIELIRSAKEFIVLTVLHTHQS
Sequence of FRMPD2_1, Q68DX3 (Q68DX3 770-861): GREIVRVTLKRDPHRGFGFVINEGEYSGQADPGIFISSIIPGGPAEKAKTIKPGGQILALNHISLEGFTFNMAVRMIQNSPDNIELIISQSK
Sequence of TJP1_2, Q07157 (Q07157 181-274): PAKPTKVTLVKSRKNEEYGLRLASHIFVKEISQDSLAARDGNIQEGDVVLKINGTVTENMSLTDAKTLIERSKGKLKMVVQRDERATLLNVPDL
Sequence of GIPC2, Q8TF65 (Q8TF65 112-203): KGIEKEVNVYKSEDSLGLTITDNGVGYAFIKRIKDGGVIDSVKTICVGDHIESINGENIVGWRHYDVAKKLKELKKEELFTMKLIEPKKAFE
Sequence of Inadl_3, Q8NI35 (Q8NI35 359-469): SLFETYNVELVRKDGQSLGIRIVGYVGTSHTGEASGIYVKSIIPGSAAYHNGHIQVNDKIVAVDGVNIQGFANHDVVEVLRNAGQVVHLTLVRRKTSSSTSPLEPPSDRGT

pKd [1]: below the threshold
pKd [2]: below the threshold
pKd [3]: below the threshold
pKd [4]: 3.84
pKd [5]: below the threshold
pKd [6]: below the threshold
pKd [7]: below the threshold
pKd [8]: below the threshold
pKd [9]: below the threshold
pKd [10]: below the threshold
pKd [11]: 3.97
pKd [12]: below the threshold
pKd [13]: below the threshold
pKd [14]: below the threshold
pKd [15]: below the threshold
pKd [16]: below the threshold
pKd [17]: below the threshold
pKd [18]: below the threshold
pKd [19]: below the threshold
pKd [20]: below the threshold
pKd [21]: below the threshold
pKd [22]: below the threshold
pKd [23]: below the threshold
pKd [24]: 3.62
pKd [25]: below the threshold
B1: CAVIN3, Q969G5 (peptide)
chain: EALLQMESVA

pKd [1]: 3.6
pKd [2]: 4.3
pKd [3]: below the threshold
pKd [4]: below the threshold
pKd [5]: 3.68
pKd [6]: below the threshold
pKd [7]: below the threshold
pKd [8]: below the threshold
pKd [9]: 4.42
pKd [10]: below the threshold
pKd [11]: below the threshold
pKd [12]: 4.36
pKd [13]: below the threshold
pKd [14]: 3.94
pKd [15]: 4.6
pKd [16]: below the threshold
pKd [17]: 3.57
pKd [18]: below the threshold
pKd [19]: 4.65
pKd [20]: 3.64
pKd [21]: below the threshold
pKd [22]: 3.66
pKd [23]: below the threshold
pKd [24]: 3.49
pKd [25]: below the threshold
B4: CLDN2, P57739 (peptide)
chain: FNSYSLTGYV

pKd [1]: below the threshold
pKd [2]: below the threshold
pKd [3]: below the threshold
pKd [4]: below the threshold
pKd [5]: below the threshold
pKd [6]: 3.64
pKd [7]: below the threshold
pKd [8]: below the threshold
pKd [9]: 4.74
pKd [10]: below the threshold
pKd [11]: below the threshold
pKd [12]: below the threshold
pKd [13]: below the threshold
pKd [14]: 4.09
pKd [15]: below the threshold
pKd [16]: below the threshold
pKd [17]: below the threshold
pKd [18]: below the threshold
pKd [19]: below the threshold
pKd [20]: below the threshold
pKd [21]: below the threshold
pKd [22]: below the threshold
pKd [23]: below the threshold
pKd [24]: 3.88
pKd [25]: below the threshold
B6: GOT1L1, Q8NHS2 (peptide)
chain: EKKTLIGIKL

Second part, the binder before the results:

B2: SDC4, P31431 (peptide)
chain: KKAPTNEFYA
pKd [1]: below the threshold
pKd [2]: 3.85
pKd [3]: below the threshold
pKd [4]: 3.62
pKd [5]: below the threshold
pKd [6]: below the threshold
pKd [7]: below the threshold
pKd [8]: below the threshold
pKd [9]: 4.52
pKd [10]: below the threshold
pKd [11]: below the threshold
pKd [12]: below the threshold
pKd [13]: 3.84
pKd [14]: below the threshold
pKd [15]: 4.38
pKd [16]: below the threshold
pKd [17]: below the threshold
pKd [18]: 3.78
pKd [19]: below the threshold
pKd [20]: below the threshold
pKd [21]: below the threshold
pKd [22]: below the threshold
pKd [23]: below the threshold
pKd [24]: 3.51
pKd [25]: below the threshold

B3: ACOT8, O14734 (peptide)
chain: VKPQVSESKL
pKd [1]: below the threshold
pKd [2]: below the threshold
pKd [3]: 3.52
pKd [4]: 3.74
pKd [5]: 3.55
pKd [6]: 4.56
pKd [7]: below the threshold
pKd [8]: below the threshold
pKd [9]: 3.69
pKd [10]: below the threshold
pKd [11]: below the threshold
pKd [12]: below the threshold
pKd [13]: below the threshold
pKd [14]: below the threshold
pKd [15]: below the threshold
pKd [16]: below the threshold
pKd [17]: below the threshold
pKd [18]: below the threshold
pKd [19]: below the threshold
pKd [20]: below the threshold
pKd [21]: 4.29
pKd [22]: 3.51
pKd [23]: below the threshold
pKd [24]: below the threshold
pKd [25]: below the threshold

B5: PDGFRB, P09619 (peptide)
chain: PRAEAEDSFL
pKd [1]: below the threshold
pKd [2]: 4.34
pKd [3]: below the threshold
pKd [4]: below the threshold
pKd [5]: 3.84
pKd [6]: 5.05
pKd [7]: below the threshold
pKd [8]: below the threshold
pKd [9]: 4.55
pKd [10]: 3.58
pKd [11]: 3.8
pKd [12]: below the threshold
pKd [13]: 3.56
pKd [14]: 4
pKd [15]: below the threshold
pKd [16]: 3.53
pKd [17]: below the threshold
pKd [18]: below the threshold
pKd [19]: 4.43
pKd [20]: 3.59
pKd [21]: 3.62
pKd [22]: below the threshold
pKd [23]: 3.54
pKd [24]: below the threshold
pKd [25]: below the threshold
